Experimental data from patent US20060246071A1.
Residue numbers refer to the chain shown, from its start.

B1: mAb 5.2.1 (antibody, part only; not given: light chain, V domains shown, part only)
VH: QVQLVESGGGVVQPGRSLRLSCAASGFTFSSYGMHWVRQAPGKGLEWVAVIWFDGFNKYYADSVKGRFTISRDNSKNTLYLQMNSLRAEDTAVYHCARDRGYSGYDHYYGMDVWGQGTTVTVSSA
B2: mAb 3.28.1 (antibody, part only; not given: light chain, V domains shown, part only)
VH: EVQLVESGGGLVQPGGSLRLSCAASGFTFSSSWMSWVRQAPGKGLEWVANIKQDGSDKYYVDSVKGRFTISRDNAKNSLYLQMNSLRAEDTAVYYCVRDKGSGWFDYWGQGTLVTVSSA
B3: mAb 5.28.1 (antibody, V domains shown)
VH: EVQLVESGGIVVQPGGSLRLSCAASGFTFDDYTMHWVRQTPGKGLEWVSLISWDGGSTYYADSVKGRFTISRDNSKNSLYLQMNSLRTEDTALYYCAKDIDIAVAGTGFDHWGQGTLVTVSS
VL: EIVMTQSPATLSVSPGERATLSCRASQSVTSNLAWYQQKPGQAPRLLIYGALIRATGIPARFSGSGSGTEFTLTISSLQSEDFAVYYCQQYNNWPFTFGPGTKVDIKR
B4: mAb 6.3.1 (antibody, V domains shown)
VH: QVQLVQSGAEVKKPGASVKVSCKASGYTFTGYFMHWVPQAPGQGLEWMGWINPNSGGTNYAQNFQGRVTMTRDTSISTAYMELSRLRSDDTPVYYCARDPWQNWNSYFDYWGQGTLVTVSS
VL: DIQMTQSPSSLSASVGDRVTITCRASQSIRSYLNWYQQKPGKAPKVLIYAASSLQSGVPSRFSGSGSGTDFTLTISSLQPEDFATYYCQQSYSTLCSFGQGTKLEIKR
B5: mAb 5.39.1 (antibody, V domains shown)
VH: QVQLVQSGAEVTKPGASVKVSCKASGYTFTAYHMYWVRQAPGQGLEWMGWINPNSGGTNYAQKFQGRVTMTRDTSISTAYMELSRLRSDDSPVYYCARDQGIAAAGPFDYWGQGTLVTVSS
VL: EIVMTQSPATLSVSPGDRATLSCRASQSVSSNFAWYQQKPGQAPRLLIYGSSTRATGIPARFSGSGSGTEFTLTISSLQSEDFAVYYCQQYHYWWTFGQGTKVEFKR
B6: mAb 5.86.1 (antibody, V domains shown)
VH: B5 VH with T12K, A31G, M48L, S91T, P92A, A97V, G112C
VL: DIRMTQSPSSLSASVGDRVTITCRASQRISTYLNWYQQKPGKAPKFLIYAASSLQSGVPSRFSGSGSGTDFTLTISSLQPEDFATYYCQQSYTTPFTFGPGTKVDIKR
B7: mAb 5.88.3 (antibody, V domains shown)
VH: EVQMVESGGGLVQPGGSLRLSCAASGFTLRSYWMSWVRQAPGKGLEWVANIKEDGSEKYHVDSVKGRFTISRDNAENSLFLQMSSLRAEDTAVYYCARDMEASAGLFDYWGQGTLVTVSS
VL: B5 VL with D17E, T20I, V29I, F33L, S51A, H92N, F105I
B8: mAb 5.62.1 (antibody, V domains shown)
VH: EVQLVESGGGLVQPGGSLRLSCAASGFTFSSYWMSWVRQAPGKGLEWVANIKQDGSEKYYVDSVKGRFTISRDNAKNSLYLQMNSLRAEDTAVYYCARDPGIAVAGPFDYWGQGTLVTVSS
VL: B5 VL with D17E, F33L, S51A, S52F, H92N, Y93H, E104G, F105I
B9: mAb 3.3.2 (antibody, V domains shown)
VH: B8 VH with A24V, P100Q
VL: B5 VL with D17E, S28T, N32D, F33L, S51A, T53I, Y87S, H92Y, Y93N, F105I

Columns and labels:
[1] = target: Human Ang-1/2 BsmI chimera (human); experiment: ELISA
[2] = target: Mouse/Human Ang-2 StuI chimera (mouse; human) (UniProt O35608); experiment: ELISA
[3] = target: Mouse/Human chimeric Ang-2 with human StuI-TfiI fragment (residues 310-400) (mouse with human residues 310-400) (UniProt O35608); experiment: ELISA
[4] = target: human Ang-2 H375Q (human) (UniProt O15123); experiment: ELISA
[5] = target: human Ang-2 V345M (human) (UniProt O15123); experiment: ELISA
[6] = target: human Ang-2 mutated at positions 365 and 367 (human) (UniProt O15123); experiment: ELISA
human Ang-2443 (human) = human Ang-2443 (human) (UniProt O15123); experiment: ELISA
[7] = target: mouse Angiopoietin-2 (mouse) (UniProt O35608); experiment: ELISA
[8] = target: recombinant human Angiopoietin-2 (human) (UniProt O15123); experiment: Biacore, mAb captured
[9] = target: recombinant human Angiopoietin-2 (human) (UniProt O15123); experiment: inhibition of rhAng-2 binding to its receptor
[10] = target: recombinant human Angiopoietin-2 (human) (UniProt O15123); experiment: Biacore, mAb captured; kd held constant in fit
[11] = target: mouse Angiopoietin-2 (mouse) (UniProt O35608); experiment: ELISA titration, mouse Ang-2 supernatant coated

human Ang-2 mutated at positions 365 and 367 (human), sequence (O15123 19-496, change not shown): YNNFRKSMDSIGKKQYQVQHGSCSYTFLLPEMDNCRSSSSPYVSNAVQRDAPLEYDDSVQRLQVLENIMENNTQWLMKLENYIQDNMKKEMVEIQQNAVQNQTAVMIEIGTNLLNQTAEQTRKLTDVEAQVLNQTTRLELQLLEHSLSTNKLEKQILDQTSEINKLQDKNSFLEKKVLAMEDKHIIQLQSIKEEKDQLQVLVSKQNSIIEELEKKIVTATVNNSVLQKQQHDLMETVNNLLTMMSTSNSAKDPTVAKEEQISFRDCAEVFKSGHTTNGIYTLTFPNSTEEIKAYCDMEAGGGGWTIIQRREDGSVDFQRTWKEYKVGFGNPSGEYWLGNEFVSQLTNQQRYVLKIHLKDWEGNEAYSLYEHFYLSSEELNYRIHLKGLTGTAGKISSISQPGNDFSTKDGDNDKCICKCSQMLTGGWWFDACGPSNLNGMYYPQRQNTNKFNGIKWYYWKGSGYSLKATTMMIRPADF
human Ang-2 V345M (human), sequence (O15123 19-496, stated change not applied): as the sequence (O15123 19-496, change not shown) above
human Ang-2 H375Q (human), sequence (O15123 19-496, stated change not applied): as the sequence (O15123 19-496, change not shown) above
recombinant human Angiopoietin-2 (human), sequence (O15123 19-496 limits assumed): as the sequence (O15123 19-496, change not shown) above
mouse Angiopoietin-2 (mouse), sequence (O35608 19-496 S348N/G411A limits assumed): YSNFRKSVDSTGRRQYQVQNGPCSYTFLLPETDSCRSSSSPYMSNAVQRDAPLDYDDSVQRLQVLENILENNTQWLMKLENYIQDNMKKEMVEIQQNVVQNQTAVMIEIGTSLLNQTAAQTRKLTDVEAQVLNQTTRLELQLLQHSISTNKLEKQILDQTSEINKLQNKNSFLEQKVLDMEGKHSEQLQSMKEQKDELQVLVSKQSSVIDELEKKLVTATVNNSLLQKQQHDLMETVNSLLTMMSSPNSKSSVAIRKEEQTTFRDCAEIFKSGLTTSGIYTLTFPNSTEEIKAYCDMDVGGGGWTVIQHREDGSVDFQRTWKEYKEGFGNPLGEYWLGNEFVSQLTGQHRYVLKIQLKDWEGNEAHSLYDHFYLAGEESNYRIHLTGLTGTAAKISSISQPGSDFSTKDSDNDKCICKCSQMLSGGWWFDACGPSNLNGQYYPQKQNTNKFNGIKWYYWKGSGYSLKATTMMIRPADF
Mouse/Human Ang-2 StuI chimera (mouse; human), sequence (O35608 other isoform, or with tags, fused parts or gaps mutant): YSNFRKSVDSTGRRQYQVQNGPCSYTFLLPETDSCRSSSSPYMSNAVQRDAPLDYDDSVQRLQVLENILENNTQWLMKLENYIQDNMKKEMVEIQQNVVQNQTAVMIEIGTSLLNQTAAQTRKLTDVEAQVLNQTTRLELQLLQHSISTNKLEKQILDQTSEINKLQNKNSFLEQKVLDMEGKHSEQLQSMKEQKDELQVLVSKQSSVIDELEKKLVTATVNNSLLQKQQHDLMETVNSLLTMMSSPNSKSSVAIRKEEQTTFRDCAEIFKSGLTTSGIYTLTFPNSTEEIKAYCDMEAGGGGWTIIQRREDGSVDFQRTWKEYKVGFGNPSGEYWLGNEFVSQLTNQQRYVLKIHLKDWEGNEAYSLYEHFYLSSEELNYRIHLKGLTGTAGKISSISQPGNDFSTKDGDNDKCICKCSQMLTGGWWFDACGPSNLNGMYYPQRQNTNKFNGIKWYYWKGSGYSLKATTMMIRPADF
human Ang-2443 (human), sequence (O15123 other isoform, or with tags, fused parts or gaps): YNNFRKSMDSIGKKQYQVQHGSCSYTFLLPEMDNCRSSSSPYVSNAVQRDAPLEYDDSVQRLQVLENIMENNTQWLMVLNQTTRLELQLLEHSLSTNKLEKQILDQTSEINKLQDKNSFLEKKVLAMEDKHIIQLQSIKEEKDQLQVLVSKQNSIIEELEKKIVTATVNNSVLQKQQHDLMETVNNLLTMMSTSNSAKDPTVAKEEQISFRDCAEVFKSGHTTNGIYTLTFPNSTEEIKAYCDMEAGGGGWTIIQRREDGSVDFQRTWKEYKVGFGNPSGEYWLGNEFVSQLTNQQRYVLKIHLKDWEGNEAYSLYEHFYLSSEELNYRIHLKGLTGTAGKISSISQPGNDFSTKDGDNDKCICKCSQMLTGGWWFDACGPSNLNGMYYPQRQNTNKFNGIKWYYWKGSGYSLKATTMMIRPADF
Mouse/Human chimeric Ang-2 with human StuI-TfiI fragment (residues 310-400) (mouse with human residues 310-400), sequence (O35608 other isoform, or with tags, fused parts or gaps mutant limits assumed): as the sequence (O35608 other isoform, or with tags, fused parts or gaps mutant) above, with K386T, G393A, N403S, G410S, T424S, M440Q, R445K counted along it

Row | Binder | percent binding compared to human Ang-2 [1] | percent binding compared to human Ang-2 [2] | percent binding compared to human Ang-2 [3] | percent binding compared to human Ang-2 [4] | percent binding compared to human Ang-2 [5] | percent binding compared to human Ang-2 [6] | percent binding compared to human Ang-2 (human Ang-2443 (human)) | percent of their immunoreactivity on human Ang-2 [7] | Kd [8] | kon [8] | OD650 in inibition assay [9] | koff [10] | antibody concentration at saturation [11]
1 | B1 | 100% | 100% | 100% | 100% | 100% | 100% | 100% | 100% | 62 pM | 160000 M⁻¹ s⁻¹ | 0.069 OD650 | 1e-05 s⁻¹ | 10 µg/mL
2 | B2 | 100% | 100% | 31% | 100% | 100% | 100% | 100% | – | 37 pM | 270000 M⁻¹ s⁻¹ | 0.0588 OD650 | 1e-05 s⁻¹ | –
3 | B3 | 100% | – | – | 100% | 100% | 100% | – | – | – | – | – | – | –
4 | B4 | 100% | – | – | 100% | 100% | 100% | – | – | – | – | – | – | –
5 | B5 | 100% | – | – | 100% | 100% | 100% | – | – | – | – | – | – | –
6 | B6 | 100% | – | – | 100% | 100% | 100% | – | – | – | – | – | – | –
7 | B7 | 100% | – | – | 100% | 100% | 100% | – | – | – | – | – | – | –
8 | B8 | 100% | – | – | 100% | 100% | 100% | – | – | – | – | – | – | –
9 | B9 | 100% | – | – | 100% | 100% | 100% | – | – | – | – | – | – | –
